Source: the supplement of paper PMC5998384

Experiments:
[1] = system: HeLa Kyoto; experiment: solubility in G1/S (NP-40 vs SDS abundance) (log2 ratio); higher = more soluble; conditions: cell cycle stage: G1/S
[2] = system: HeLa Kyoto; experiment: solubility change mitosis vs G1/S (difference of NP-40 vs SDS log2 ratios) (log2 ratio difference); higher = more soluble in mitosis
[3] = system: HeLa Kyoto; experiment: thermal stability score vs G1/S (z-score of summed log2 fold changes over temperatures); higher = more thermally stable than in G1/S
[4] = cell cycle stage: early G1 (4.5 h after nocodazole release)
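Throughout, for solubility change mitosis vs G1/S (difference of NP-40 vs SDS log2 ratios): synchronized HeLa Kyoto cells (double thymidine block for G1/S, nocodazole release for mitosis), protein amounts in NP-40 versus SDS lysates quantified by mass spectrometry, three biological replicates.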
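Throughout, for solubility in G1/S (NP-40 vs SDS abundance): HeLa Kyoto cells arrested at G1/S by double thymidine block, proteins quantified by TMT10plex mass spectrometry in mild NP-40 versus SDS extracts, three biological replicates.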
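Throughout, for thermal stability score vs G1/S (z-score of summed log2 fold changes over temperatures): synchronized HeLa Kyoto cells, proteins quantified by TMT10plex mass spectrometry, three biological replicates, mitosis taken 0.5 h after nocodazole release, G1/S directly after double thymidine block.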

Chain of CLK4 (chain, as listed by the source): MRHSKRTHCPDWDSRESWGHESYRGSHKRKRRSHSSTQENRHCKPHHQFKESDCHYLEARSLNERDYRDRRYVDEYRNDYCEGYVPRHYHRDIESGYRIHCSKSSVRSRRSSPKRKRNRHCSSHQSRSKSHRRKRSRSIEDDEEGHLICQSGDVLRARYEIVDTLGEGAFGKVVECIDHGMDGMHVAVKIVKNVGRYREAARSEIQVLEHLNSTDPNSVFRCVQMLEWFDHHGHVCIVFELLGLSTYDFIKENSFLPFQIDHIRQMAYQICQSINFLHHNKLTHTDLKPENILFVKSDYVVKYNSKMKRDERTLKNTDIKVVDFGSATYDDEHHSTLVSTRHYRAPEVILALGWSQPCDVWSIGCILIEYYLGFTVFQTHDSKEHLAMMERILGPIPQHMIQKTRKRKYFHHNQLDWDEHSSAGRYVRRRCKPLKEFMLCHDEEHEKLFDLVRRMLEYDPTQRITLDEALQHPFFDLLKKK
Chain of ISG20 (chain, as listed by the source): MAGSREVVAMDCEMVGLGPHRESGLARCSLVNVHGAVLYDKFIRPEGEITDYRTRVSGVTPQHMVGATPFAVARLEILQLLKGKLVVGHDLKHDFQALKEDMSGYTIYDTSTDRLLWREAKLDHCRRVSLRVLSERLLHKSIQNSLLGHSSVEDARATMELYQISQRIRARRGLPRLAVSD
Chain of ARNTL (chain, as listed by the source): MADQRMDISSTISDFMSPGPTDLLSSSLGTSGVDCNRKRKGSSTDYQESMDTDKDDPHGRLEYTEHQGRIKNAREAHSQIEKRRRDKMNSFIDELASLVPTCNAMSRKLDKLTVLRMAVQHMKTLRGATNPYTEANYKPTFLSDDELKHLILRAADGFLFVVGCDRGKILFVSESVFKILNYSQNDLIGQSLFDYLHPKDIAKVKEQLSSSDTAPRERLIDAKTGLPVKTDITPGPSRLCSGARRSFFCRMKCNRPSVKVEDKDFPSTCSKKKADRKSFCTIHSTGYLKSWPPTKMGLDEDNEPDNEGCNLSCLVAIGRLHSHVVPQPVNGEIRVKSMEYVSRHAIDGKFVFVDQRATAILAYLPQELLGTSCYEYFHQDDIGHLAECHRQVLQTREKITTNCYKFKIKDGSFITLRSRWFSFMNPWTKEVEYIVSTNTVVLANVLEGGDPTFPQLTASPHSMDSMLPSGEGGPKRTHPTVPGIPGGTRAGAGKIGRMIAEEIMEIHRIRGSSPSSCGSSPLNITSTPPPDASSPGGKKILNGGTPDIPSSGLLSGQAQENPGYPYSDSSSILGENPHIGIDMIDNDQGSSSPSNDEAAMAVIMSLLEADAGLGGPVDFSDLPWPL
Chain of EPB41L5 (chain, as listed by the source): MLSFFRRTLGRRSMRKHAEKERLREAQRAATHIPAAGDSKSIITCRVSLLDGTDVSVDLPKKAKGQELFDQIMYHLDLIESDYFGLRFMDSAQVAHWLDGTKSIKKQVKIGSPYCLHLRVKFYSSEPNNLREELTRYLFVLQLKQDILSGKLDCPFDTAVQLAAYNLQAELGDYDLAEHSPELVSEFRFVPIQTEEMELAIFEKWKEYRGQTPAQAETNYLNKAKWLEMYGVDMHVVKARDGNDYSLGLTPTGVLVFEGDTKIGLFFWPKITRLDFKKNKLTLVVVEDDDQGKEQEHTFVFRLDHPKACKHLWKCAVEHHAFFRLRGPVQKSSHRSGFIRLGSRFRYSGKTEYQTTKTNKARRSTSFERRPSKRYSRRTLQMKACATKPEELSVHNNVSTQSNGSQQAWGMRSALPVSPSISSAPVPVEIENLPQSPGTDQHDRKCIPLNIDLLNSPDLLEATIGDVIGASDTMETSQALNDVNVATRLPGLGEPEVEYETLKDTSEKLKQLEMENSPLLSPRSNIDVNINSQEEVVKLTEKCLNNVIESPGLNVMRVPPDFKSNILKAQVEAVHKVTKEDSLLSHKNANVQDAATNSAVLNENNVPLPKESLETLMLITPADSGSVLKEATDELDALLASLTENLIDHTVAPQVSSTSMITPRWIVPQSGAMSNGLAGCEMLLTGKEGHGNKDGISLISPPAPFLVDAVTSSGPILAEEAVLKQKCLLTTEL

| Substance | solubility change mitosis (log2) [2] | also measured |
| --- | --- | --- |
| ANKRD11 | 0.268 | solubility in G1/S (log2) [1]: -0.497 |
| ARHGEF17 | 0.166 | solubility in G1/S (log2) [1]: -0.434 |
| ARNTL | -0.179 | solubility in G1/S (log2) [1]: -0.0786 |
| BRCA1 | 0.246 | solubility in G1/S (log2) [1]: -0.318 |
| CAPN15 | -0.0119 | solubility in G1/S (log2) [1]: -0.427 |
| CEP192 | -0.137 | solubility in G1/S (log2) [1]: -0.295 |
| CEP350 | 0.0106 | solubility in G1/S (log2) [1]: 0.00287 |
| CHD1 | 0.383 | solubility in G1/S (log2) [1]: -2.28 |
| CLIC3 | -0.00439 | solubility in G1/S (log2) [1]: 0.369 |
| CLK4 | 0.508 | solubility in G1/S (log2) [1]: -1.44 |
| EPB41L5 | 0.268 | solubility in G1/S (log2) [1]: -0.503 |
| EVPL | 0.319 | solubility in G1/S (log2) [1]: -0.382 |
| FAM208B | 0.423 | solubility in G1/S (log2) [1]: -0.671 |
| ICE1 | 0.51 | solubility in G1/S (log2) [1]: -0.864 |
| ISG20 | -0.182 | solubility in G1/S (log2) [1]: 0.28 |
| KIAA0368 | -0.156 | solubility in G1/S (log2) [1]: 0.0203 |
| KMT2C | -0.0115 | solubility in G1/S (log2) [1]: 0.137 |
| MAAAAAETPEVLRECGCKGIRTCLICERQRGSDPPWELPPAKTYRFIYCSDTGWAVGTEESDFEGWAFPFPGVMLIEDFVTREEEAELVRLMDRDPWKLSQSGRRKQDYGPKVNFRKQKLKTEGFCGLPSFSREVVRRMGLYPGLEGFRPVEQCNLDYCPERGSAIDPHLDDAWLWGERLVSLNLLSPTVLSMCREAPGSLLLCSAPSAAPEALVDSVIAPSRSVLCQEVEVAIPLPARSLLVLTGAARHQWKHAIHRRHIEARRVCVTFRELSAEFGPGGRQQELGQELLRIALSFQGRPV [ALKBH4] | -0.0312 | solubility in G1/S (log2) [1]: 0.184 |
| MAAALPRTLGELQLYRILQKANLLSYFDAFIQQGGDDVQQLCEAGEEEFLEIMALVGMASKPLHVRRLQKALRDWVTNPGLFNQPLTSLPVSSIPIYKLPEGSPTWLGISCSSYERSSNAREPHLKIPKCAATTCVQSLGQGKSDVVGSLALQSVGESRLWQGHHATESEHSLSPADLGSPASPKESSEALDAAAALSVAECVERMAPTLPKSDLNEVKELLKTNKKLAKMIGHIFEMNDDDPHKEEEIRKYSAIYGRFDSKRKDGKHLTLHELTVNEAAAQLCVKDNALLTRRDELFALARQISREVTYKYTYRTTKSKCGERDELSPKRIKVEDGFPDFQDSVQTLFQQARAKSEELAALSSQQPEKVMAKQMEFLCNQAGYERLQHAERRLSAGLYRQSSEEHSPNGLTSDNSDGQGERPLNLRMPNLQNRQPHHFVVDGELSRLYPSEAKSHSSESLGILKDYPHSAFTLEKKVIKTEPEDSR [NAB1] | 0.105 | solubility in G1/S (log2) [1]: 0.187 |
| MAAATVGRDTLPEHWSYGVCRDGRVFFINDQLRCTTWLHPRTGEPVNSGHMIRSDLPRGWEEGFTEEGASYFIDHNQQTTAFRHPVTGQFSPENSEFILQEEPNPHMSKQDRNQRPSSMVSETSTAGTASTLEAKPGPKIIKSSSKVHSFGKRDQAIRRNPNVPVVVRGWLHKQDSSGMRLWKRRWFVLADYCLFYYKDSREEAVLGSIPLPSYVISPVAPEDRISRKYSFKAVHTGMRALIYNSSTAGSQAEQSGMRTYYFSADTQEDMNAWVRAMNQAAQVLSRSSLKRDMEKVERQAVPQANHTESCHECGRVGPGHTRDCPHRGHDDIVNFERQEQEGEQYRSQRDPLEGKRDRSKARSPYSPAEEDALFMDLPTGPRGQQAQPQRAEKNGMLPASYGPGEQNGTGGYQRAFPPRTNPEKHSQRKSNLAQVEHWARAQKGDSRSLPLDQTLPRQGPGQSLSFPENYQTLPKSTRHPSGGSSPPPRNLPSDYKYAQDRASHLKMSSEERRAHRDGTVWQLYEWQQRQQFRHGSPTAPICLGSPEFTDQGRSRSMLEVPRSISVPPSPSDIPPPGPPRVFPPRRPHTPAERVTVKPPDQRRSVDISLGDSPRRARGHAVKNSSHVDRRSMPSMGYMTHTVSAPSLHGKSADDTYLQLKKDLEYLDLKMTGRDLLKDRSLKPVKIAESDTDVKLSIFCEQDRVLQDLEDKIRALKENKDQLESVLEVLHRQMEQYRDQPQHLEKIAYQQKLLQEDLVHIRAELSRESTEMENAWNEYLKLENDVEQLKQTLQEQHRRAFFFQEKSQIQKDLWRIEDVTAGLSANKENFRILVESVKNPERKTVPLFPHPPVPSLSTSESKPPPQPSPPTSPVRTPLEVRLFPQLQTYVPYRPHPPQLRKVTSPLQSPTKAKPKVEDEAPPRPPLPELYSPEDQPPAVPPLPREATIIRHTSVRGLKRQSDERKRDRELGQCVNGDSRVELRSYVSEPELATLSGDMAQPSLGLVGPESRYQTLPGRGLSGSTSRLQQSSTIAPYVTLRRGLNAESSKATFPRPKSALERLYSGDHQRGKMSAEEQLERMKRHQKALVRERKRTLGQGERTGLPSSRYLSRPLPGDLGSVC [PLEKHA7] | 0.454 | solubility in G1/S (log2) [1]: -0.548 |
| MAAELVEAKNMVMSFRVSDLQMLLGFVGRSKSGLKHELVTRALQLVQFDCSPELFKKIKELYETRYAKKNSEPAPQPHRPLDPLTMHSTYDRAGAVPRTPLAGPNIDYPVLYGKYLNGLGRLPAKTLKPEVRLVKLPFFNMLDELLKPTELVPQNNEKLQESPCIFALTPRQVELIRNSRELQPGVKAVQVVLRICYSDTSCPQEDQYPPNIAVKVNHSYCSVPGYYPSNKPGVEPKRPCRPINLTHLMYLSSATNRITVTWGNYGKSYSVALYLVRQLTSSELLQRLKTIGVKHPELCKALVKEKLRLDPDSEIATTGVRVSLICPLVKMRLSVPCRAETCAHLQCFDAVFYLQMNEKKPTWMCPVCDKPAPYDQLIIDGLLSKILSECEDADEIEYLVDGSWCPIRAEKERSCSPQGAILVLGPSDANGLLPAPSVNGSGALGSTGGGGPVGSMENGKPGADVVDLTLDSSSSSEDEEEEEEEEEDEDEEGPRPKRRCPFQKGLVPAC [PIAS4] | -0.116 | solubility in G1/S (log2) [1]: 0.228 |
| MAGRVPSLLVLLVFPSSCLAFRSPLSVFKRFKETTRPFSNECLGTTRPVVPIDSSDFALDIRMPGVTPKQSDTYFCMSMRIPVDEEAFVIDFKPRASMDTVHHMLLFGCNMPSSTGSYWFCDEGTCTDKANILYAWARNAPPTRLPKGVGFRVGGETGSKYFVLQVHYGDISAFRDNNKDCSGVSLHLTRLPQPLIAGMYLMMSVDTVIPAGEKVVNSDISCHYKNYPMHVFAYRVHTHHLGKVVSGYRVRNGQWTLIGRQSPQLPQAFYPVGHPVDVSFGDLLAARCVFTGEGRTEATHIGGTSSDEMCNLYIMYYMEAKHAVSFMTCTQNVAPDMFRTIPPEANIPIPVKSDMVMMHEHHKETEYKDKIPLLQQPKREEEEVLDQGDFYSLLSKLLGEREDVVHVHKYNPTEKAESESDLVAEIANVVQKKDLGRSDAREGAEHERGNAILVRDRIHKFHRLVSTLRPPESRVFSLQQPPPGEGTWEPEHTGDFHMEEALDWPGVYLLPGQVSGVALDPKNNLVIFHRGDHVWDGNSFDSKFVYQQIGLGPIEEDTILVIDPNNAAVLQSSGKNLFYLPHGLSIDKDGNYWVTDVALHQVFKLDPNNKEGPVLILGRSMQPGSDQNHFCQPTDVAVDPGTGAIYVSDGYCNSRIVQFSPSGKFITQWGEESSGSSPLPGQFTVPHSLALVPLLGQLCVADRENGRIQCFKTDTKEFVREIKHSSFGRNVFAISYIPGLLFAVNGKPHFGDQEPVQGFVMNFSNGEIIDIFKPVRKHFDMPHDIVASEDGTVYIGDAHTNTVWKFTLTEKLEHRSVKKAGIEVQEIKEAEAVVETKMENKPTSSELQKMQEKQKLIKEPGSGVPVVLITTLLVIPVVVLLAIAIFIRWKKSRAFGDSEHKLETSSGRVLGRFRGKGSGGLNLGNFFASRKGYSRKGFDRLSTEGSDQEKEDDGSESEEEYSAPLPALAPSSS [PAM] | -0.0982 | thermal stability score [3, 4]: -1.73; thermal stability score ([3]; cell cycle stage: mitosis): -2.21 |
| MRPL14 | 0.104 |  |
| MRPL23 | 0.185 |  |
| MRPL24 | 0.022 |  |
| MRPL27 | 0.243 |  |
| MRPL37 | -0.0819 |  |

| Substance | solubility change mitosis (log2) [2] | also measured |
| --- | --- | --- |
| MRPL39 | -0.14 |  |
| MRPL45 | -0.0934 |  |
| MRPL48 | -0.0228 |  |
| MRPL51 | -0.136 |  |
| MRPL54 | 0.343 |  |
| MRPS7 | -0.0353 |  |
| MRPS15 | 0.176 |  |
| MRPS16 | -0.0244 |  |
| MRPS27 | -0.149 |  |
| MRPS34 | 0.0157 |  |
| MTMR1 | 0.0778 |  |
| MTOR | -0.154 |  |
| MWSAGRGGAAWPVLLGLLLALLVPGGGAAKTGAELVTCGSVLKLLNTHHRVRLHSHDIKYGSGSGQQSVTGVEASDDANSYWRIRGGSEGGCPRGSPVRCGQAVRLTHVLTGKNLHTHHFPSPLSNNQEVSAFGEDGEGDDLDLWTVRCSGQHWEREAAVRFQHVGTSVFLSVTGEQYGSPIRGQHEVHGMPSANTHNTWKAMEGIFIKPSVEPSAGHDEL [SDF2L1] | -0.0974 | thermal stability score [3, 4]: 4.06; thermal stability score ([3]; cell cycle stage: mitosis): 1.19 |
| NCAPG | -0.0373 |  |
| NDUFB10 | 0.185 |  |
| NEGR1 | -0.204 |  |
| NOC2L | 0.667 |  |
| NUDT5 | 0.0137 |  |
| OLR1 | 0.51 |  |
| OXA1L | -0.112 |  |
| PHLDA3 | 0.0241 |  |
| POLR2A | 0.228 |  |
| POLR2C | 0.102 |  |
| POLR2K | 0.187 |  |
| PRKACA | -0.0702 |  |
| RAN | 0.0277 |  |
| RBM8A | 0.468 |  |

| Substance | solubility change mitosis (log2) [2] | also measured |
| --- | --- | --- |
| RBX1 | -0.338 |  |
| RPL6 | 0.908 |  |
| RPL7 | 0.696 |  |
| RPL11 | 0.596 |  |
| RPL15 | 0.657 |  |
| RPL23A | 0.826 |  |
| RPL24 | 0.971 |  |
| RPL27A | 1.02 |  |
| RPL31 | 0.763 |  |
| RPL34 | 0.894 |  |
| RPL36 | 0.849 |  |
| RPL36A | 0.902 |  |
| RPL38 | 0.638 |  |
| RPS3 | 0.437 |  |
| RPS6 | 0.803 |  |
| RPS11 | 0.597 |  |
| RPS12 | 0.588 |  |
| RPS14 | 0.203 |  |
| RPS27A | 0.852 |  |
| RSL1D1 | 1.5 |  |
| SETDB1 | -0.0625 |  |
| SNRPN | 0.368 |  |
| SUB1 | 0.154 |  |
| TCEA1 | -0.0112 |  |
| TOLLIP | 0.0779 |  |
| TRIM16 | -0.177 |  |
